Columns and labels:
[1] = molecular target: T1, post-F protein (RSV-A2 F protein with P102A, I379V, M447V and fusion peptide positions 137-146 removed, … (respiratory syncytial virus, RSV-A2, UniProt P03420 26-524)); assay: hybridoma screening, RSV-post F enzyme-linked immunosorbent assay
T1 construct: Signal peptide, furin processing and the residue of the HRV 3C site left after cleavage are not described; also called RSV-post F; post-fusion F

[2] = molecular target: T2, RSV F protein in RSV-A2 virus preparation (Western Blot sample) (respiratory syncytial virus A2 strain, UniProt P03420 26-574); assay: Western Blot, non-boiled sample
T2 construct: Loaded boiled (denatured) or non-boiled (non-denatured); also called RSV A2 strain

[3] = molecular target: T3, RSV F protein on Hep2 cells infected with RSV-A2 (immunofluorescent assay) (respiratory syncytial virus A2 strain, UniProt P03420 26-574); assay: immunofluorescence on RSV-A2-infected Hep2 cells, confocal microscopy
T3 construct: whole, on cells

B1: monoclonal antibody 5C4 (antibody, V domains shown)
VH: EVQLQQSGAELVKPGASVKLSCTASGFNIKDTFFHWVKQRPEQGLEWIGRIDPADGHTKYDPKFQGKATITADTSSNTAFLQLSSLTSEDTAVYYCATTITAVVPTPYNAMDYWGQGTSVTVSS
VL: DIVLTQSPASLAVSLGQRTTISCRASESVDSFDNSFIHWYQQKPGQPPKLLIFLASSLESGVPARFSGSGSRTDFTLTIDPVEADDAATYYCQQSNEDPFTFGSGTKLEIKR
notes: Mouse hybridoma antibody purified from ascites; kappa light chain; also called 5C4 monoclonal antibody; 5C4 antibody
[1]
  binding result: no binding
[2]
  binding result: binds
[3]
  binding result: binds
